Source: the Human Domainome abundance scans (Beltran et al. 2025)

B1: 3'-5' exoribonuclease 1, residues 65 to 114; numbered along this chain, Q8IV48 (parent)
chain: VYKEIAITNGCINRMSKEELRAKLSEFKLETRGVKDVLKKRLKNYYKKQK

Variants of: B1
Assay: abundance fitness (aPCA) (normalised: wild type 0, dead -1); higher = more abundant; growth selection in yeast, the domain comes from the species named
Conditions: Homo sapiens

Abundance fitness: each site, then its substitutions
L24: Y -0.896 | P -0.984 | M -0.507 | N -1.03 | E -0.986 | G -0.97 | C -0.052 | Q -0.927 | R -0.96 | T -0.832 | V -0.813 | D -1.05 | H -0.772 | A -0.704 | W -0.902 | K -0.973 | I -0.88
K17: R -0.203 | G -0.603 | I -0.329 | T -0.366 | F -0.646 | E -0.518 | V -0.152 | H -0.591 | C -0.113 | S -0.34 | D -0.759 | L -0.592 | N -0.378 | A -0.209 | Y -0.651 | Q -0.664 | W -0.871
R14: I -0.724 | L -0.43 | V -0.65 | F -0.881 | N -0.151 | T -0.226 | H -0.166 | C -0.315 | M -0.298 | G -0.15 | A -0.115 | E -0.359 | W -0.941 | P -0.908 | Y -0.826 | D -0.308 | S -0.129 | Q -0.072
L20: P -0.961 | C -0.879 | G -0.942 | R -0.997 | A -0.912 | E -0.78 | K -0.956 | W -0.835 | T -0.913 | V -0.568 | F -0.512 | D -1 | Q -0.892 | S -0.479 | M -0.282
E18: S 0.038 | M 0.012 | F -0.007 | V 0.058 | Q 0.075 | N 0.047 | P -0.008 | H -0.043 | C 0.072 | L -0.025 | A 0.079 | I -0.003 | D -0.034 | W -0.131 | G -0.023 | Y -0.179 | R 0.04 | K 0.058
E26: A -0.202 | W -0.406 | T -0.189 | C -0.31 | D -0.119 | I -0.432 | K -0.273 | F -0.169 | M -0.267 | P -0.964 | L -0.22 | G -0.24 | H -0.267 | N -0.273 | S -0.185 | Q -0.102 | V -0.362 | R -0.472 | Y -0.153
S16: D -0.336 | T -0.01 | V -0.753 | W -1.19 | K -0.026 | M -1.08 | F -0.701 | G -0.425 | E -0.746 | Y -0.461 | I -0.828 | A -0.445 | L -0.838 | R -0.097 | Q -0.54 | P -0.264 | N -0.041
G10: W -0.401 | Q -0.125 | N -0.147 | P -0.248 | R -0.248 | Y -0.238 | K -0.112 | L -0.37 | H -0.18 | T -0.121 | I -0.34 | S -0.146
M15: Y -0.645 | I -0.635 | L -0.317 | N -0.789 | D -0.981 | H -0.873 | E -1.05 | K -0.326 | Q -0.885 | R -0.718 | W -0.83 | F -0.544 | T -0.414 | P -1 | C -0.826 | A -0.678 | G -0.975
F27: H 0.062 | W -0.453 | E -0.036 | K -0.065 | G -0.723 | C 0.065 | P -0.914 | D -0.652 | N 0.007 | S -0.307 | A -0.065 | M 0.026 | Q -0.166 | I 0.003 | L 0.148 | T -0.483 | Y -0.019
